The target in this experiment is T1, G-protein–coupled receptor kinase–interacting protein-1 (human (endogenous in HUVEC), UniProt Q9Y2X7 1-761).
T1 sequence (looked up): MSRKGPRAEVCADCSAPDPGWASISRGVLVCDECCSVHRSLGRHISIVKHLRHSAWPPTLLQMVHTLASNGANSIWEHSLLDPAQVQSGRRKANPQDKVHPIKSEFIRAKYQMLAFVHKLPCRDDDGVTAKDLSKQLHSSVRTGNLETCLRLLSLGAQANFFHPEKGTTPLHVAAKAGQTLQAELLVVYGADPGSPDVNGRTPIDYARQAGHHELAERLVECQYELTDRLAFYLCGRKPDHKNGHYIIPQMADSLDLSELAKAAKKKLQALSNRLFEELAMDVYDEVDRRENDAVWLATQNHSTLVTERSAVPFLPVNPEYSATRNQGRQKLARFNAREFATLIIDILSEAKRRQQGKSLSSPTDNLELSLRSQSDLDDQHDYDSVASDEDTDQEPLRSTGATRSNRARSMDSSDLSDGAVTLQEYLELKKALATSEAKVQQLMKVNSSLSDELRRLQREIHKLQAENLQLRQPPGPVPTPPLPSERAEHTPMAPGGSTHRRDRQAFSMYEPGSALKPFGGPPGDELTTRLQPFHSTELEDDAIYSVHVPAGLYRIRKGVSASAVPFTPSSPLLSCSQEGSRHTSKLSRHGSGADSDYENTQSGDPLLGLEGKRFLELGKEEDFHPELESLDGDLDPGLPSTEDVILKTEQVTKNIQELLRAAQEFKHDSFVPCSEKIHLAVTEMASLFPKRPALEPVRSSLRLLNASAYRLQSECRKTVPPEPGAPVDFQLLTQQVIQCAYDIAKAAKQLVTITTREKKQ
As to the kind of experiment: co-IP.

B1: cortactin (natural protein, human (endogenous in HUVEC), UniProt Q14247 1-550, looked up)
chain: MWKASAGHAVSIAQDDAGADDWETDPDFVNDVSEKEQRWGAKTVQGSGHQEHINIHKLRENVFQEHQTLKEKELETGPKASHGYGGKFGVEQDRMDKSAVGHEYQSKLSKHCSQVDSVRGFGGKFGVQMDRVDQSAVGFEYQGKTEKHASQKDYSSGFGGKYGVQADRVDKSAVGFDYQGKTEKHESQRDYSKGFGGKYGIDKDKVDKSAVGFEYQGKTEKHESQKDYVKGFGGKFGVQTDRQDKCALGWDHQEKLQLHESQKDYKTGFGGKFGVQSERQDSAAVGFDYKEKLAKHESQQDYSKGFGGKYGVQKDRMDKNASTFEDVTQVSSAYQKTVPVEAVTSKTSNIRANFENLAKEKEQEDRRKAEAERAQRMAKERQEQEEARRKLEEQARAKTQTPPVSPAPQPTEERLPSSPVYEDAASFKAELSYRGPVSGTEPEPVYSMEAADYREASSQQGLAYATEAVYESAEAPGHYPAEDSTYDEYENDLGITAVALYDYQAAGDDEISFDPDDIITNIEMIDDGWWRGVCKGRYGLFPANYVELRQ
As to B1, the “fold increase of association on VEGF (vs unstimulated)” value came to 6 fold.

B2: phosphorylated S405-cortactin (natural protein, human (endogenous in HUVEC), UniProt Q14247 1-550, looked up)
chain: B1 chain
modifications: phosphoserine at 405
For B2, the “fold increase of its level in the GIT1–cortactin complex on VEGF” value came out at 4 fold.

The values above are taken from article PMC4295836 (Arteriosclerosis, thrombosis, and vascular biology, 2013).
